Laboratory results: patent US20100003195A1 (published 2010)
One block for each binder: values may come before it. Bridge positions count the residues as written; N and C are the ends. Primed or numbered codes have the meaning given here. Ends that are not written are not given here. I, II: the chains in the order shown. * marks the point of attachment. ivDde′ = (4,4-dimethyl-2,6-dioxocyclohex-1-ylidene)-3-methylbutyl protecting group, CC(C)CC(=C1C(=O)CC(C)(C)CC1=O)*

Assays:
KDR on HUVECs [1] = biological target: T1, KDR on HUVECs (human, UniProt P35968 20-1356); test: cell-based or functional assay
[2] = biological target: T2, KDR on KDR-transfected 293H cells (human, UniProt P35968 20-1356); test: competitor 125I-VEGF (300 pM), KDR-transfected 293H cells, peptide 30 µM
T2 construct: whole, on cells; also called KDR-expressing cells; KDR-transfected cells

[3] = biological target: T2, KDR on KDR-transfected 293H cells; test: competitor 125I-VEGF (300 pM), KDR-transfected 293H cells, peptide 0.3 µM
KDR on HUVECs [4] = biological target: T1, KDR on HUVECs; test: cell-based or functional assay; remark: listed apart in the source
[5] = biological target: T2, KDR on KDR-transfected 293H cells; test: radioligand binding, 1-4 µCi/mL, KDR- vs mock-transfected 293H cells
[6] = biological target: T2, KDR on KDR-transfected 293H cells; test: Tc-labeled dimer on KDR- vs mock-transfected 293H cells
[7] = biological target: T3, human KDR-Fc chimeric fusion (R&D Systems #357-KD-05) (human, UniProt P35968 20-764); test: BIAcore steady state, KD1, KDR-Fc at 6000 RU
T3 construct: bought; also called KDR Fc fusion
Procedure: (§1) All samples were injected in duplicate. […] Following a 10 minute dissociation, any remaining peptide was stripped from the KDR surface with a quickinject of 50 mM NaOH+1 M NaCl for 12 s at 75 μL/min. Sensorgrams were analyzed using BIAevaluation software 3.1 and a hyperbolic double rectangular regression equation in SigmaPlot 6.0.

[8] = biological target: T3, human KDR-Fc chimeric fusion (R&D …); test: BIAcore steady state at the higher immobilization densities
Procedure: as §1

[9] = biological target: T3, human KDR-Fc chimeric fusion (R&D …); test: BIAcore steady state, KDAV, KDR-Fc at 6000 RU
Procedure: as §1

[10] = biological target: T3, human KDR-Fc chimeric fusion (R&D …); test: BIAcore steady state, KDAV, KDR-Fc at 1600 RU
Procedure: as §1

[11] = biological target: T3, human KDR-Fc chimeric fusion (R&D …); test: BIAcore steady state, KD1, KDR-Fc at 3000 RU
Procedure: as §1

[12] = biological target: T3, human KDR-Fc chimeric fusion (R&D …); test: BIAcore steady state, KD1, KDR-Fc at 1600 RU
Procedure: as §1

[13] = biological target: T3, human KDR-Fc chimeric fusion (R&D …); test: BIAcore steady state, KDAV, KDR-Fc at 3000 RU
Procedure: as §1

T3 sequence (P35968 20-764, change not shown): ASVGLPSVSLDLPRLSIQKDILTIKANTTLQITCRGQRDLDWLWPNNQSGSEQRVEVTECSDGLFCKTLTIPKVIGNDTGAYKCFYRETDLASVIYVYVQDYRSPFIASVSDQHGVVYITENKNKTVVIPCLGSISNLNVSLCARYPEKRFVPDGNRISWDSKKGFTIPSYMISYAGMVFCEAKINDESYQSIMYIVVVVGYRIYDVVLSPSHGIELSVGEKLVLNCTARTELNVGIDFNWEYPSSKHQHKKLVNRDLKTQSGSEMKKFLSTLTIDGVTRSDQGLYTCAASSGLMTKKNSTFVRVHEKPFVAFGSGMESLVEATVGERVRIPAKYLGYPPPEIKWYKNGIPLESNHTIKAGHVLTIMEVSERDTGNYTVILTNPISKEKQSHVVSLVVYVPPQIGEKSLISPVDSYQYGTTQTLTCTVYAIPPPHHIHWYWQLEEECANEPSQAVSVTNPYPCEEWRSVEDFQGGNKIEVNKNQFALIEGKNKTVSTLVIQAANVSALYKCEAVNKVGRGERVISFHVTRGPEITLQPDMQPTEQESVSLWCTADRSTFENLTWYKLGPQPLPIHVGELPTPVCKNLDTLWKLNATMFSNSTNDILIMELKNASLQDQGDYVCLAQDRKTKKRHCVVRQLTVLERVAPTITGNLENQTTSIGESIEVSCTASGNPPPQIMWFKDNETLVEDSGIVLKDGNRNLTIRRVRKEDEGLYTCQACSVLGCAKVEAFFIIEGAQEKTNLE
T2 sequence (P35968 20-1356): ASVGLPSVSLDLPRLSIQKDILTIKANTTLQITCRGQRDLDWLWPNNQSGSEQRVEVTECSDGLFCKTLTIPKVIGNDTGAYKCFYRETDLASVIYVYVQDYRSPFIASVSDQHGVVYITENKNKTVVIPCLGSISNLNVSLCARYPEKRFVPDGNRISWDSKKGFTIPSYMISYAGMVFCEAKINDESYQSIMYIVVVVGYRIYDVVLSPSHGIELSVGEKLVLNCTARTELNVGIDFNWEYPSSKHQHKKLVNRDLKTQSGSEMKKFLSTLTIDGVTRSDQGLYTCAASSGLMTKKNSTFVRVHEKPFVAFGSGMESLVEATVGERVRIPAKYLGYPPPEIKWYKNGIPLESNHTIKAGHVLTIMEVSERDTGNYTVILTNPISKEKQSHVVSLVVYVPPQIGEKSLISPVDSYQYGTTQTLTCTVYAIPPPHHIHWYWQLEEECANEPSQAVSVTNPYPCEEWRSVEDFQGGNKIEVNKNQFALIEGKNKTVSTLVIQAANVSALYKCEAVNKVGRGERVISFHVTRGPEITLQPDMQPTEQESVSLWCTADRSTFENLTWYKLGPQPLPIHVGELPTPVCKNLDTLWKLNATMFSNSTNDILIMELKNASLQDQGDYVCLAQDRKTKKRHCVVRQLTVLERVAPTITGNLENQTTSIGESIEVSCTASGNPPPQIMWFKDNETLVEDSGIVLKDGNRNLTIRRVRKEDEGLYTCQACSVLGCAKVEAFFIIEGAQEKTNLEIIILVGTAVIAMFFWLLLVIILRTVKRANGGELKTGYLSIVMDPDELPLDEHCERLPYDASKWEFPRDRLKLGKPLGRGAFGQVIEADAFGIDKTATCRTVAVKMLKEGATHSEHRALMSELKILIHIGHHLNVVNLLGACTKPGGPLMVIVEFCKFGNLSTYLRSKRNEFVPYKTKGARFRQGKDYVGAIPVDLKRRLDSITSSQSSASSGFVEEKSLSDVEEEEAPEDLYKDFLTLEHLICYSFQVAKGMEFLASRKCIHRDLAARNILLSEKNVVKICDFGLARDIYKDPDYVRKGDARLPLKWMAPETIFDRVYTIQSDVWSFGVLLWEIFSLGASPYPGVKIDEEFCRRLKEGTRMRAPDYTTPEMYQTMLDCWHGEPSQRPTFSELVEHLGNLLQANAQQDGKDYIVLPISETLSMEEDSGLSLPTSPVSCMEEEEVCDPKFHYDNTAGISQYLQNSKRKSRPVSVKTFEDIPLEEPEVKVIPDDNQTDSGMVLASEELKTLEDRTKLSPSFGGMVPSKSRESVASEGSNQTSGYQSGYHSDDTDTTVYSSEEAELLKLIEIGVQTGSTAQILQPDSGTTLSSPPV
T1 sequence (P35968 20-1356): as above

- IC50, VEGF-induced HUVEC migration (KDR on HUVECs [4]): ~250 nM
B1: dimer 17 (D17) (peptide)
peptide 1: AQDWYYDEILGRGGRGGRGGK
peptide 2: VCWEDSWGGEVCFRYDPGGGK
modifications: not fully specified; N-acetyl; C-terminal Lys(JJ-Glut) amide; N-acetyl; J spacer within the chain

- IC50, VEGF-induced HUVEC migration (KDR on HUVECs [4]): 5 nM
B2: dimer 25 (D25) (peptide)
peptide 1: Ac-AGPTWCEDDWYYCWLFGTGGGK-NH2
peptide 2: Ac-GDSRVCWEDSWGGEVCFRYDPGGGK-NH2
modifications: disulfide I:6-I:13, II:6-II:16 (inferred); not fully specified (bridges); also: dimer joined by JJ-Glut-Lys linker

- VEGF-induced KDR phosphorylation, HUVEC immunoblot (KDR on HUVECs [1]): ≥ 50 % inhibition at 10 µM
Binder: Ac-AQGDYVYWEIIELTGATDHTPPGGK-NH2 (also: fluorescein on C-terminal Lys in FP only) [SEQ ID NO:307]

- binding result [5]: binds
B3: 125I-labeled D5 (peptide)
peptide 1: Ac-VCWEDSWGGEVCFRYDPGGGK-NH2
peptide 2: Ac-AGPTWCEDDWYYCWLFGTGGGK-NH2
modifications: disulfide I:2-I:12, II:6-II:13 (inferred); not fully specified (bridges); also: dimer joined by JJ-glutaryl-Lys linker, 125I Bolton-Hunter label, site not given here
notes: also called dimer 5

- binding result [6]: no binding (tested: up to 10 µCi/mL)
B4: Tc-labeled D18 (scrambled derivative of D10) (peptide)
peptide 1: Ac-APGTWCDYDWEYCWLGTFGGGK-NH2
peptide 2: Ac-GVDFRCEWSDWGEVGCRSPDYGGGK-NH2
modifications: disulfide I:6-I:13, II:6-II:16 (inferred); not fully specified (some residues, bridges); also: 99mTc chelated by PnAO6, J not defined
notes: control; also called dimer 18

- IC50, VEGF-induced HUVEC migration (KDR on HUVECs [4]): ~12.5 nM
- Kd [7]: 17 nM
- Kd [8]: ~0.6 nM
- Kd [9]: 0.662 nM
- Kd [10]: 1.5 nM
- Kd [11]: 25.5 nM
- Kd [12]: 46 nM
- Kd [13]: 0.665 nM
B5: dimer 6 (D6) (peptide)
peptide 1: GDSRVCWEDSWGGEVCFRYDPGGGK
peptide 2: AGPTWCEDDWYYCWLFGTGGGK
modifications: disulfide I:6-I:16, II:6-II:13 (inferred); also: heterodimer made with glutaric acid bis-NHS ester
notes: heterodimer made with glutaric acid bis-NHS ester

- VEGF-induced KDR phosphorylation, HUVEC immunoblot (KDR on HUVECs [1]): ≥ 50 % inhibition at 10 µM
Binder: Ac-GDWWECK(ivDde′)REEYRNTTWCAWADPGGGK-NH2 (disulfide 6-17 (inferred)) [SEQ ID NO:366 having a blocked K]

Second part, the binder before the results:

Binder: Ac-GDSRVCWEDSWGGEVCFRYDPGGGK-NH2 (disulfide 6-16 (inferred); also: fluorescein on C-terminal Lys in FP only) [SEQ ID NO:294]
- VEGF-induced KDR phosphorylation, HUVEC immunoblot (KDR on HUVECs [1]): ≥ 50 % inhibition at 10 µM
- % inhibition of 125I-labeled VEGF binding [2]: 96.3%
- % inhibition of 125I-labeled VEGF binding [3]: 52.3%

Binder: Ac-AGWIECYHPDGICYHFGTGGGK-NH2 (disulfide 6-13 (inferred); also: fluorescein on C-terminal Lys in FP only) [SEQ ID NO:269]
- VEGF-induced KDR phosphorylation, HUVEC immunoblot (KDR on HUVECs [1]): ≥ 50 % inhibition at 10 µM

Binder: Ac-AQEPEGYAYWEVITLYHEEDGDGGK-NH2 (also: fluorescein on C-terminal Lys in FP only) [SEQ ID NO:305]
- VEGF-induced KDR phosphorylation, HUVEC immunoblot (KDR on HUVECs [1]): ≥ 50 % inhibition at 10 µM

Binder: Ac-AQAFPRFGGDDYWIQQYLRYTDGGK-NH2 (also: fluorescein on C-terminal Lys in FP only) [SEQ ID NO:306]
- VEGF-induced KDR phosphorylation, HUVEC immunoblot (KDR on HUVECs [1]): ≥ 50 % inhibition at 10 µM

Binder: Ac-AGPTWCEDDWYYCWLFGTGGGK-NH2 (cysteine pairing not given here; also: fluorescein on C-terminal Lys in FP and) [SEQ ID NO:277]
- IC50, receptor activation assay (KDR on HUVECs [4]): 100 nM
- % inhibition of 125I-labeled VEGF binding [2]: 104%
- % inhibition of 125I-labeled VEGF binding [3]: 81%

Binder: Ac-GDPDTCTMWGDSGRWYCFPADPGGGK-NH2 (disulfide 6-17 (inferred); also: fluorescein on C-terminal Lys in FP only) [SEQ ID NO:301]
- VEGF-induced KDR phosphorylation, HUVEC immunoblot (KDR on HUVECs [1]): ≥ 50 % inhibition at 10 µM

Binder: Ac-AGWLECYAEFGHCYNFGTGGGK-NH2 (disulfide 6-13 (inferred); also: fluorescein on C-terminal Lys in FP only) [SEQ ID NO:267]
- VEGF-induced KDR phosphorylation, HUVEC immunoblot (KDR on HUVECs [1]): ≥ 50 % inhibition at 10 µM
